Measured values published in paper PMC5340008 (BMC Biochemistry, 2017).

B1: BLIP [change] (natural protein)
chain: AGVMTGAKFTQIQFGMTRQQVLDIAGAENCETGGSFGDSIHCRGHAAGDQYAYATFGFTSAAADAKVDSKSQEKLLAPSAPTLTLAKFNQVTVGMTRAQVLATVGQGSCTTWSEYYPAYPSTAGVTLSLSCFDVDGYSSTGFYRGSAHLWFTDGVLQGKRQWDLV
B2: BLIP [change] (natural protein)
chain: AGVMTGAKFTQIQFGMTRQQVLDIAGAENCETGGSFGDSIHCRGHAAGDEYAYATFGFTSAAADAKVDSKSQEKLLAPSAPTLTLAKFNQVTVGMTRAQVLATVGQGSCTTWSEYYPAYPSTAGVTLSLSCFDVDGYSSTGFYRGSAHLWFTDGVLQGKRQWDLV
B3: BLIP [change] (natural protein)
chain: AGVMTGAKFTQIQFGMTRQQVLDIAGAENCETGGSFGDSIHCRGHAAGDCYAYATFGFTSAAADAKVDSKSQEKLLAPSAPTLTLAKFNQVTVGMTRAQVLATVGQGSCTTWSEYYPAYPSTAGVTLSLSCFDVDGYSSTGFYRGSAHLWFTDGVLQGKRQWDLV
B4: BLIP [change] (natural protein)
chain: AGVMTGAKFTQIQFGMTRQQVLDIAGAENCETGGSFGDSIHCRGHAAGDVYAYATFGFTSAAADAKVDSKSQEKLLAPSAPTLTLAKFNQVTVGMTRAQVLATVGQGSCTTWSEYYPAYPSTAGVTLSLSCFDVDGYSSTGFYRGSAHLWFTDGVLQGKRQWDLV
B5: BLIP [change] (natural protein)
chain: AGVMTGAKFTQIQFGMTRQQVLDIAGAENCETGGSFGDSIHCRGHAAGDPYAYATFGFTSAAADAKVDSKSQEKLLAPSAPTLTLAKFNQVTVGMTRAQVLATVGQGSCTTWSEYYPAYPSTAGVTLSLSCFDVDGYSSTGFYRGSAHLWFTDGVLQGKRQWDLV
B6: BLIP [change] (natural protein)
chain: AGVMTGAKFTQIQFGMTRQQVLDIAGAENCETGGSFGDSIHCRGHAAGDTYAYATFGFTSAAADAKVDSKSQEKLLAPSAPTLTLAKFNQVTVGMTRAQVLATVGQGSCTTWSEYYPAYPSTAGVTLSLSCFDVDGYSSTGFYRGSAHLWFTDGVLQGKRQWDLV
B7: BLIP [change] (natural protein)
chain: AGVMTGAKFTQIQFGMTRQQVLDIAGAENCETGGSFGDSIHCRGHAAGDMYAYATFGFTSAAADAKVDSKSQEKLLAPSAPTLTLAKFNQVTVGMTRAQVLATVGQGSCTTWSEYYPAYPSTAGVTLSLSCFDVDGYSSTGFYRGSAHLWFTDGVLQGKRQWDLV
B8: BLIP [change] (natural protein)
chain: AGVMTGAKFTQIQFGMTRQQVLDIAGAENCETGGSFGDSIHCRGHAAGDKYAYATFGFTSAAADAKVDSKSQEKLLAPSAPTLTLAKFNQVTVGMTRAQVLATVGQGSCTTWSEYYPAYPSTAGVTLSLSCFDVDGYSSTGFYRGSAHLWFTDGVLQGKRQWDLV
B9: BLIP [change] (natural protein)
chain: AGVMTGAKFTQIQFGMTRQQVLDIAGAENCETGGSFGDSIHCRGHAAGDNYAYATFGFTSAAADAKVDSKSQEKLLAPSAPTLTLAKFNQVTVGMTRAQVLATVGQGSCTTWSEYYPAYPSTAGVTLSLSCFDVDGYSSTGFYRGSAHLWFTDGVLQGKRQWDLV
B10: BLIP [change] (natural protein)
chain: AGVMTGAKFTQIQFGMTRQQVLDIAGAENCETGGSFGDSIHCRGHAAGDFYAYATFGFTSAAADAKVDSKSQEKLLAPSAPTLTLAKFNQVTVGMTRAQVLATVGQGSCTTWSEYYPAYPSTAGVTLSLSCFDVDGYSSTGFYRGSAHLWFTDGVLQGKRQWDLV
B11: BLIP [change] (natural protein)
chain: AGVMTGAKFTQIQFGMTRQQVLDIAGAENCETGGSFGDSIHCRGHAAGDWYAYATFGFTSAAADAKVDSKSQEKLLAPSAPTLTLAKFNQVTVGMTRAQVLATVGQGSCTTWSEYYPAYPSTAGVTLSLSCFDVDGYSSTGFYRGSAHLWFTDGVLQGKRQWDLV
B12: BLIP [change] (natural protein)
chain: AGVMTGAKFTQIQFGMTRQQVLDIAGAENCETGGSFGDSIHCRGHAAGDLYAYATFGFTSAAADAKVDSKSQEKLLAPSAPTLTLAKFNQVTVGMTRAQVLATVGQGSCTTWSEYYPAYPSTAGVTLSLSCFDVDGYSSTGFYRGSAHLWFTDGVLQGKRQWDLV
B13: BLIP [change] (natural protein)
chain: AGVMTGAKFTQIQFGMTRQQVLDIAGAENCETGGSFGDSIHCRGHAAGDRYAYATFGFTSAAADAKVDSKSQEKLLAPSAPTLTLAKFNQVTVGMTRAQVLATVGQGSCTTWSEYYPAYPSTAGVTLSLSCFDVDGYSSTGFYRGSAHLWFTDGVLQGKRQWDLV
B14: BLIP [change] (natural protein)
chain: AGVMTGAKFTQIQFGMTRQQVLDIAGAENCETGGSFGDSIHCRGHAAGDGYAYATFGFTSAAADAKVDSKSQEKLLAPSAPTLTLAKFNQVTVGMTRAQVLATVGQGSCTTWSEYYPAYPSTAGVTLSLSCFDVDGYSSTGFYRGSAHLWFTDGVLQGKRQWDLV
B15: BLIP [change] (natural protein)
chain: AGVMTGAKFTQIQFGMTRQQVLDIAGAENCETGGSFGDSIHCRGHAAGDAYAYATFGFTSAAADAKVDSKSQEKLLAPSAPTLTLAKFNQVTVGMTRAQVLATVGQGSCTTWSEYYPAYPSTAGVTLSLSCFDVDGYSSTGFYRGSAHLWFTDGVLQGKRQWDLV
B16: BLIP [change] (natural protein)
chain: AGVMTGAKFTQIQFGMTRQQVLDIAGAENCETGGSFGDSIHCRGHAAGDDYAYATFGFTSAAADAKVDSKSQEKLLAPSAPTLTLAKFNQVTVGMTRAQVLATVGQGSCTTWSEYYPAYPSTAGVTLSLSCFDVDGYSSTGFYRGSAHLWFTDGVLQGKRQWDLV
B17: BLIP [change] (natural protein)
chain: AGVMTGAKFTQIQFGMTRQQVLDIAGAENCETGGSFGDSIHCRGHAAGDHYAYATFGFTSAAADAKVDSKSQEKLLAPSAPTLTLAKFNQVTVGMTRAQVLATVGQGSCTTWSEYYPAYPSTAGVTLSLSCFDVDGYSSTGFYRGSAHLWFTDGVLQGKRQWDLV
B18: BLIP [change] (natural protein)
chain: AGVMTGAKFTQIQFGMTRQQVLDIAGAENCETGGSFGDSIHCRGHAAGDSYAYATFGFTSAAADAKVDSKSQEKLLAPSAPTLTLAKFNQVTVGMTRAQVLATVGQGSCTTWSEYYPAYPSTAGVTLSLSCFDVDGYSSTGFYRGSAHLWFTDGVLQGKRQWDLV

What was measured:
[1] = target: Bacillus anthracis Bla1 β-lactamase (Bacillus anthracis)
TEM-1 β-lactamase = TEM-1 β-lactamase (UniProt P62593 24-286); assay: β-lactamase inhibition assay (nitrocefin hydrolysis, Morrison tight-binding fit); increasing concentrations of BLIP incubated with 1 nM β-lactamase for 1 h at room temperature in 50 mM sodium phosphate pH 7.0; nitrocefin added at its Km, initial velocity at 482 nm; Ki calculated from Ki app; settings: both partners purified
KPC-2 β-lactamase = KPC-2 β-lactamase (UniProt Q9F663 25-293); assay: as above; settings: both partners purified

Molecule	Ki [1]	Ki (TEM-1 β-lactamase)	Ki (KPC-2 β-lactamase)
β-lactamase inhibitory protein (BLIP), wild type (from UniProt P35804 37-201) (natural protein)	2.5 nM	–	–
B1	–	0.24 nM	1 nM
B2	–	76 nM	5.5 nM
B3	–	60 nM	42 nM
B4	–	3.5 nM	10 nM
B5	–	40 nM	5 nM
B6	–	2.5 nM	3.5 nM
B7	–	0.11 nM	0.5 nM
B8	–	195 nM	260 nM
B9	–	7.8 nM	3.8 nM
B10	–	10.3 nM	15 nM
B11	–	11 nM	1.1 nM
B12	–	0.17 nM	0.7 nM
B13	–	69 nM	11 nM
B14	–	0.4 nM	0.72 nM
B15	–	–	1.9 nM
B16	–	160 nM	3.2 nM
B17	–	5 nM	1.4 nM
B18	–	1.1 nM	5 nM
